{"source": "patent US20200181597A1", "about": "“Composition and Application of Arginine-depleting Agents for Cancer, Obesity, Metabolic Disorders, and Related Complications and Comorbidities” (THE HONG KONG POLYTECHNIC UNIVERSITY, priority 2018, published 2020)", "key": {"[1]": {"experiment": "Normal lean mice on chow diet, 500U at 10-day intervals for 4 weeks", "format": "in vivo, C57BL/6J male mice", "from_the_text": "Thus, we treated normal lean C57BL/6J male mice fed an ordinary chow diet via i.p. injection of 500U N-ABD094-rhArg (SEQ ID NO: 50) at 10-day intervals for 4 weeks. After 4 weeks of treatment, there was over 25% reduction of visceral (perigondal, perirenal and mesenteric fad pad) and subcutaneous (inguinal fat pad) fat mass (FIG. 15A) in comparison with the control mice injected with the vehicle (saline).\nObesity is highly associated with insulin resistance. We therefore conducted both in vivo and in vitro study to determine whether N-ABD094-rhArg (SEQ ID NO: 50) treatment will have effects on insulin sensitivity. […] At 24-hour after culture in N-ABD094-rhArg (SEQ ID NO: 50) or control (without addition of N-ABD094-rhArg) medium, primary hepatocytes were stimulated with 100 nM insulin for 20 min. Cells were then collected for Western blot analysis to detect phosphorylated protein kinase B (pAkt), which is commonly used as marker of insulin signaling."}, "[2]": {"experiment": "Prevention of HFD-induced obesity, male mice", "format": "in vivo, C57BL/6J male mice", "from_the_text": "To determine the efficacy of N-ABD094-rhArg (SEQ ID NO: 50) in preventing mice from diet-induced obesity and associated metabolic disorders, C57BL/6J male mice were fed a high-fat diet containing 60 kcal % fat (HFD; Research Diets, D12492) from 8 week old for 12 weeks, and concurrently received i.p. injection of 200-300U N-ABD094-rhArg (SEQ ID NO: 50) or saline as vehicle control at 7-day intervals. C57BL/6J mice fed a matched low fat diet containing 10 kcal % fat (LFD; Research Diets, D12450J) and injected with saline served as the lean control of various measurements.\nTwo cohorts, with n=5 in each group, had been separately conducted. Mice were housed in group of 5. Similar results were obtained in the two independent cohorts. Data of one cohort of mice were summarized in Examples 18-22."}, "[3]": {"system": "mouse 3T3-L1 preadipocytes", "experiment": "3T3-L1 preadipocyte differentiation (oil red O, qRT-PCR)", "format": "cell-based", "description": "FIG. 23 illustrates that arginine depletion by adding N-ABD094-rhArg (SEQ ID NO: 50) (rhArg), bovine arginase or native arginine deiminase (ADI) to the culture medium, or using arginine-free medium inhibited the differentiation of mouse 3T3-L1 preadipocytes into adipocytes. […] (*The culture medium contains 0.4 mM L-arginine and can be converted into 0.4 mM L-ornithine and 0.4 mM urea by arginase, or 0.4 mM L-citrulline by ADI.). Cells grown in culture medium without addition of arginine depleting agents or metabolic products of arginase/ADI served as the control. Lipids in cells were stained with oil red O at 6 days after exposure to specific differentiation-inducing factors added to the medium.\nFIG. 24 illustrates that N-ABD094-rhArg (SEQ ID NO: 50) could suppress adipogenic and lipogenic genes in 3T3-L1 preadipocytes. Mouse 3T3-L1 preadipocytes were cultured for 6 days in medium supplemented with specific factors to induce differentiation into adipocytes (differentiated). Cells grown in medium without these factors remained undifferentiated. The medium was added with 2U/mL N-ABD094-rhArg (SEQ ID NO: 50) (rhArg). Cells grown in medium without the addition of N-ABD094-rhArg served as the control. The mRNA expression levels of several crucial (A) transcriptional regulators of adipogenesis, and (B) enzymes in lipogenic pathways were determined by real-time qRT-PCR, and expressed relative to the undifferentiated (control) group, which is set as 1. *P<0.05, one-way ANOVA followed by Fisher's LSD. Data are expressed as mean±SEM, n=3 for each group.\nFIG. 25 illustrates the response of 3T3-L1 preadipocytes to various concentrations of arginine Mouse 3T3-L1 preadipocytes were cultured in arginine-free medium with or without addition of varying concentrations of L-arginine for 6 days. Cells cultured in normal arginine-containing medium supplemented with differentiation inducing factors served as the positive (+ve) control of differentiation, while cells cultured in normal arginine-containing medium without supplementation of differentiation inducing factors served as the negative (−Ve) control of differentiation. One group of cells was cultured in normal arginine-containing medium supplemented with differentiation inducing factors and treated with 5U/mL N-ABD094-rhArg (SEQ ID NO: 50) (rhArg) to inhibit differentiation. (A) Cells were stained for lipids with oil red O, and staining intensity was quantified by measuring optical density, which is expressed as the percentage against the +ve control group. (B) The mRNA levels of several crucial lipogenesis related genes are expressed relative to cells cultured in arginine-free medium, which is set as 1. Data are expressed as mean±SEM, n=3 for each group.\nTo test the effect of N-ABD094-rhArg (SEQ ID NO: 50) on fat cells, mouse 3T3-L1 preadipocytes were used, which are commonly employed as cell-based model for studying adipogenesis [Green and Meuth, 1974, Cell 3:127-133]."}, "[4]": {"experiment": "Blood pressure by tail cuff method in DIO mice", "format": "in vivo", "conditions": "600U at 7-day intervals for 5 weeks", "from_the_text": "Obesity is associated with cardiovascular disease and hypertension. DIO mice treated with 600U N-ABD094-rhArg (SEQ ID NO: 50) at 7-day intervals for 5 weeks were subjected to measurement of blood pressure by tail cuff method using the CODA Non-invasive Blood Pressure System (Kents Scientific Corporation)."}, "[5]": {"conditions": "500U at 10-day intervals, 4 weeks"}}}
{"molecule": "N-ABD094-rhArg: albumin binding domain ABD094 fused N-terminally to recombinant human arginase I, SEQ ID NO: 50 (protein, Mn2+; N-ABD094-rhArg, Synthesized in the Lab) MHHHHHHDEAVDANSLAEAKEAANAELDSYGVSDFYKRLIDKAKTVEGVEALKDAILAALPSGSNNNNNNGSGGMSAKSRTIGIIGAPFSKGQPRGGVEEGPTVLRKAGLLEKLKEQECDVKDYGDLPFADIPNDSPFQIVKNPRSVGKASEQLAGKVAEVKKNGRISLVLGGDHSLAIGSISGHARVHPDLGVIWVDAHTDINTPLTTTSGNLHGQPVSFLLKELKGKIPDVPGFSWVTPCISAKDIVYIGLRDVDPGEHYILKTLGIKYFSMTEVDRLGIGKVMEETLSYLLGRKKRPIHLSFDVDGLDPSFTPATGTPVVGGLTYREGLYITEEIYKTGLLSGLDIMEVNPSLGKTPEEVTRTVNTAVAITLACFGLAREGNHKPIDYLNPPK", "values": [{"measurement": "mRNA levels of Acc1, Fasn, Scd1 in visceral WAT and liver", "setting": "[1]; [5]", "result": "dramatically suppressed"}, {"measurement": "size of adipocytes in visceral WAT (histology)", "setting": "[1]; [5]", "result": "prominent reduction"}, {"measurement": "reduction of visceral and subcutaneous fat mass vs vehicle", "setting": "[1]; 500U i.p. at 10-day intervals, after 4 weeks", "result": "over 25%"}, {"measurement": "insulin sensitivity in insulin tolerance test (ITT)", "setting": "[1]; after 2 weeks of treatment", "result": "significant increase"}, {"measurement": "HFD-induced downregulation of Acox1 in BAT", "setting": "[2]; 12 weeks HFD", "result": "block the downregulation"}, {"measurement": "HFD-induced upregulation of adipogenic transcription factors and lipogenic enzymes in the liver", "setting": "[2]; 12 weeks HFD", "result": "significantly suppress"}, {"measurement": "mRNA of Ucp1 and Pgc1α in BAT", "setting": "[2]; 12 weeks HFD", "result": "significantly upregulated"}, {"measurement": "mRNA of proinflammatory adipokines (Mcp1, Il1b, Tnfa) in perigonadal WAT", "setting": "[2]; 12 weeks HFD", "result": "suppress the upregulation"}, {"measurement": "serum levels of Mcp1 (ELISA)", "setting": "[2]; 12 weeks HFD", "result": "suppress an elevation"}, {"measurement": "weight of kidney, pancreas and heart", "setting": "[2]; 12 weeks HFD", "result": "effectively prevent weight gain"}, {"measurement": "weight gain and expansion of WAT caused by HFD", "setting": "[2]; 200-300U i.p. at 7-day intervals, 12 weeks, concurrent with HFD", "result": "effectively prevented"}, {"measurement": "adipocyte hypertrophy in WAT (histology)", "setting": "[2]; 200-300U weekly, 12 weeks, HFD", "result": "prominently suppressed"}, {"measurement": "mRNA of Pparg, Srebp1c, Acc1, Scd1 in gWAT", "setting": "[2]; 200-300U weekly, 12 weeks, HFD", "result": "dramatic downregulation"}, {"measurement": "mRNA of Pparg, Srebp1c, Acc1, Scd1 in skeletal muscle", "setting": "[2]; 200-300U weekly, 12 weeks, HFD", "result": "significantly downregulated"}, {"measurement": "development of hyperglycemia and hyperinsulinemia (fasting blood glucose, plasma insulin, HOMA-IR)", "setting": "[2]; concurrent weekly treatment, HFD", "result": "completely prevent"}, {"measurement": "development of HFD-induced impaired glucose tolerance (GTT)", "setting": "[2]; concurrent weekly treatment, GTT at 5 and 10 weeks", "result": "completely prevent"}, {"measurement": "development of HFD-induced insulin resistance (ITT)", "setting": "[2]; concurrent weekly treatment, ITT at 6 and 11 weeks", "result": "completely prevent"}, {"measurement": "development of hyperleptinemia, hypercholesterolemia, hypertriglyceridemia, hyper-free fatty acidemia", "setting": "[2]; fasting plasma at 12 weeks of HFD", "result": "completely prevent"}, {"measurement": "mRNA levels of adipogenic transcription factors and lipogenic enzymes", "setting": "[3]; 2U/mL, 6 days", "result": "significantly suppressed"}, {"measurement": "adipogenesis and lipogenesis in 3T3-L1 cells (oil red O)", "setting": "[3]; added to culture medium, 6 days of differentiation", "result": "effectively inhibit"}, {"measurement": "systolic and diastolic blood pressure and heart rate vs vehicle-treated DIO mice", "setting": "[4]", "result": "significantly lower"}]}
